6 variants from publication PMC9959916, “A Highly Conserved Region in BRCA2 Suppresses the RAD51-Interaction Activity of BRC Repeats” (Veterinary Sciences, 2023) can be followed below.

B1: FLAG-HA-NLS-fused cBRC1-HCR-BRC2 (canine BRCA2 993–1248 aa) [canine (Canis lupus familiaris)] / endogenous RAD51 (HeLa cells) [human (endogenous in HeLa)] (parent complex)
chain 1: PISNHSFENGFKTASNKEIKLSENNIRKSKMLFKDIEEHYPTNLACLEIVNTSSLESQKKPSKSHALDPQSINIISGFVQNSTYVSDSESGHTAPPTLSLKQDFDSNRNLTPSQKAEITELSTILEESGSQFEFTQFRKPSHIIQKNPFEMPENQLTILNSTSKEWKDDDLHLTTNAPSISQVDSKKSEGIIGGKQKFACLSRTSCNRSASGYSTDKNEVEFRGFYSARGTKLNVGSEALQKAKKLFSDLENINEE
chain 2: MAMQMQLEANADTSVEEESFGPQPISRLEQCGINANDVKKLEEAGFHTVEAVAYAPKKELINIKGISEAKADKILAEAAKLVPMGFTTATEFHQRRSEIIQITTGSKELDKLLQGGIETGSITEMFGEFRTGKTQICHTLAVTCQLPIDRGGGEGKAMYIDTEGTFRPERLLAVAERYGLSGSDVLDNVAYARAFNTDHQTQLLYQASAMMVESRYALLIVDSATALYRTDYSGRGELSARQMHLARFLRMLLRLADEFGVAVVITNQVVAQVDGAAMFAADPKKPIGGNIIAHASTTRLYLRKGRGETRICKIYDSPCLPEAEAMFAINADGVGDAKD
B2: Gal4 DNA-binding domain-fused cBRC1-HCR-BRC2 (canine BRCA2 993–1248 aa) [canine (Canis lupus familiaris)] / VP16-fused canine RAD51 [canine] (parent complex)
chain 1: B1 chain 1
chain 2: B1 chain 2 with N62S, A76T, A194G

Numbering of substitutions follows the chain as printed.

The variants in the first test derive from B1. Kind of test: co-immunoprecipitation (anti-FLAG IP, Western blot quantification); lysates from HeLa cells stably expressing the FLAG-HA-NLS-fused peptide; parent: 1. (Immunoblotting shows a protein as a band on a membrane.)
Take chain 1 PISNHSFENGFKTASNKEIKLSENNIRKSKMLFKDIEEHYPTNLACLEIVNTSSLESQKKPSKSHALDPQSINIISGFVQNSTYVSDSESGHTAPPTLSLKQDFDSNRNLTPSQKAEMTELSTILEESGSQFEFTQFRKPSHIIQKNPFEMPENQLTILNSTSKEWKDDDLHLTTNAPSISQVDSKKSEGIIGGKQKFACLSRTSCNRSASGYSTDKNEVEFRGFYSARGTKLNVGSEALQKAKKLFSDLENINEE [chain 1 I118M]: the ratio to parent was found to be 0.92. Consider chain 1 PISNHSFENGFKTASNKEIKLSENNIRKSKMLFKDIEEHYPTNLACLEIVNTSSLESQKKPSKSHALDPQSINIISGFVQNSTYVSDSESGHTAPPTLSLKQDFDSNRNLTPSQKAEITELPTILEESGSQFEFTQFRKPSHIIQKNPFEMPENQLTILNSTSKEWKDDDLHLTTNAPSISQVDSKKSEGIIGGKQKFACLSRTSCNRSASGYSTDKNEVEFRGFYSARGTKLNVGSEALQKAKKLFSDLENINEE [chain 1 S122P], for which the ratio to parent amounted to 0.52. For chain 1 PISNHSFENGFKTASNKEIKLSENNIRKSKMLFKDIEEHYPTNLACLEIVNTSSLESQKKPSKSHALDPQSINIISGFVQNSTYVSDSESGHTAPPTLSLKQDFDSNRNLTPSQKAEITELSPILEESGSQFEFTQFRKPSHIIQKNPFEMPENQLTILNSTSKEWKDDDLHLTTNAPSISQVDSKKSEGIIGGKQKFACLSRTSCNRSASGYSTDKNEVEFRGFYSARGTKLNVGSEALQKAKKLFSDLENINEE [chain 1 T123P], the ratio to parent worked out at 0.57.

The variants in the next test derive from B2. Description: mammalian two-hybrid assay; n = 4; parent: 3.1; read off a plot.
As for chain 1 PISNHSFENGFKTASNKEIKLSENNIRKSKMLFKDIEEHYPTNLACLEIVNTSSLESQKKPSKSHALDPQSINIISGFVQNSTYVSDSESGHTAPPTLSLKQDFDSNRNLTPSQKAEITELSPILEESGSQFEFTQFRKPSHIIQKNPFEMPENQLTILNSTSKEWKDDDLHLTTNAPSISQVDSKKSEGIIGGKQKFACLSRTSCNRSASGYSTDKNEVEFRGFYSARGTKLNVGSEALQKAKKLFSDLENINEE [chain 1 T123P], the response was about 2 Firefly/Renilla. On the same count and under the same terms, under chain 1 PISNHSFENGFKTASNKEIKLSENNIRKSKMLFKDIEEHYPTNLACLEIVNTSSLESQKKPSKSHALDPQSINIISGFVQNSTYVSDSESGHTAPPTLSLKQDFDSNRNLTPSQKAEITELPTILEESGSQFEFTQFRKPSHIIQKNPFEMPENQLTILNSTSKEWKDDDLHLTTNAPSISQVDSKKSEGIIGGKQKFACLSRTSCNRSASGYSTDKNEVEFRGFYSARGTKLNVGSEALQKAKKLFSDLENINEE [chain 1 S122P] stands about 2.6 Firefly/Renilla; under chain 1 PISNHSFENGFKTASNKEIKLSENNIRKSKMLFKDIEEHYPTNLACLEIVNTSSLESQKKPSKSHALDPQSINIISGFVQNSTYVSDSESGHTAPPTLSLKQDFDSNRNLTPSQKAEMTELSTILEESGSQFEFTQFRKPSHIIQKNPFEMPENQLTILNSTSKEWKDDDLHLTTNAPSISQVDSKKSEGIIGGKQKFACLSRTSCNRSASGYSTDKNEVEFRGFYSARGTKLNVGSEALQKAKKLFSDLENINEE [chain 1 I118M], about 3.3 Firefly/Renilla.
